B1: C1a411-472: proximal segment of C1a, residues 411-472 of rat Kv2.1 (protein, UniProt P15387 411-472, looked up, fragment)
chain: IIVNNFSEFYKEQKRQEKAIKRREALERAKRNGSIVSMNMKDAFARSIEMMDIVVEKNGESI

Tests used:
[1] = target: T1, human syntaxin (Homo sapiens, UniProt Q16623); assay: Far-Western analysis of syntaxin binding to SPOT peptide arrays; conditions: for syntaxin binding inferred from the overlapping peptide array: sequence deduced from or picked out of the 15-mer array, not spotted itself; for syntaxin binding to spotted peptide (fluorescence intensity): 15-mer peptides on PVDF membrane, human syntaxin over-expressing CHO cell lysate, four arrays
T1 construct: expressed in transfected cells; host or cells: CHO cells (lysate)
Experimental: FIG. 8: Binding of Kv2.1 peptides to syntaxin. The 76 overlapping Kv2.1 peptides were spot-plated as an array onto a polyvinylidene fluoride membrane using the SPOTS-synthesis method. Membranes were incubated with a human syntaxin over-expressing CHO cell lysate and a far-Western analysis of syntaxin binding to the peptide arrays was performed using a commercially available syntaxin antibody and fluorescently tagged secondary antibody. Fluorescence intensity was quantified as an index of syntaxin binding to the spot array. Bars represent the mean+/−SEM of binding in four independent arrays. […]

[2] = target: T2, Kv2.1/syntaxin binding (Homo sapiens, UniProt Q16623); assay: Co-immunoprecipitation of Kv2.1 with syntaxin from transfected CHO cells; assay type: cell-based; conditions: for effect on Kv2.1/syntaxin binding (co-immunoprecipitation): syntaxin-expressing CHO cells co-transfected with Kv2.1 and peptide plasmid, syntaxin immunoprecipitates probed for Kv2.1
T2 construct: expressed in transfected cells; host or cells: CHO cells
Experimental: For electrophysiological experiments, mixed cortical neuronal/glial cultures were prepared from embryonic day 16 (E16) Sprague-Dawley rats (Charles River Laboratories, Wilmington, Mass., USA). Donor rats were euthanized by gradual CO2 exposure. Cortices were dissociated with trypsin, and the resultant cell suspension, adjusted to 670,000 cells per well, was plated on glass coverslips in 6-well plates as described previously (Hartnett et al., J Neurochem 68, 1836-1845, 1997). Non-neuronal cell proliferation was inhibited after two weeks in culture with 1-2 μM cytosine arabinoside, and cultures utilized at three to four weeks in vitro. For neuronal transfection, cells were treated for five hours in serum-free medium with 2 μL LIPOFECTAMINE™ 2000 (Invitrogen, Carlsbad, Calif.), 50 μL Optimem (GIBCO, Grand Island, N.Y.), and 1.5 μg DNA per well. For CHO cell transfections, cells were plated on coverslips in 24-well plates at a density of 5.6×10^4 cells per well for electrophysiological measurements or in 100 mm dishes at a density of 1.7×10^6 cells per dish for biochemical studies. Cells were treated for 3-4 hours in serum-free medium with a total of 1.2 μL LIPOFECTAMINE™ and 0.28 μg DNA per well for electrophysiology, or 55.1 μL LIPOFECTAMINE™ and 7.33 μg DNA per dish for biochemistry. Following transfection, cells were maintained in F12 medium containing fetal bovine serum at 37° C., 5% CO2 for 24 hours prior to experimentation.
Protein was harvested by washing cell culture dishes with ice cold PBS followed by a short incubation with 1% 3-[(3-cholamidopropyl) dimethylammonio]-1-propanesulfonate buffer. Protein A/G agarose bead slurry (Santa Cruz, Dallas, Tex.) was added to the samples and rocked at 4° C. for 1 hour in order to pre-clear non-specific protein binding. Samples were then incubated overnight at 4° C. with the appropriate immunoprecipitating antibodies. Following another incubation with the bead slurry, the protein samples were prepared/denatured by the addition of sample preparation buffer (625 mM Tris, 25% glycerol, 2% sodium dodecyl sulfate (SDS), 0.01% bromophenol blue and 5% β-mercaptoethanol) and heated at 95° C. for 5 min prior to SDS polyacrylamide gel electrophoresis and immunoblotting.
Protein samples from equal amounts of cell lysate were separated on 10% sodium dodecyl sulfate SDS polyacrylamide gels by electrophoresis using the Mini Protean 3 System (Bio-Rad, Hercules, Calif.). Separated protein bands were transferred onto 0.2 μm nitrocellulose membranes (Bio-Rad), blocked with 1% bovine serum albumin (BSA) in PBS with 0.05% Tween 20 (PBST) at room temperature for 1 hour, and probed with appropriate primary antibodies diluted in PBST. Blots were then incubated with infrared fluorescent goat secondary antibodies at room temperature for 1 hour, visualized using the Odyssey Imaging System (LI-COR Biosciences, Lincoln, Nebr.), and quantified using infrared fluorimetry.
After establishing that C1a effectively precluded the oxidant-induced K^+ current increase in neurons, studies were performed to identify the sub-domains within C1a that could retain the ability to disrupt Kv2.1/syntaxin binding. C1a was divided into overlapping proximal and distal segments, hereafter referred to as C1a411-472 and C1a441-522, respectively. Co-immunoprecipitation experiments were performed to compare the ability of C1a and the smaller segments to displace Kv2.1 from syntaxin. Syntaxin immunoprecipitates of protein samples obtained from CHO cells transfected with a syntaxin-expressing plasmid, and co-transfected with Kv2.1 together with C1a, C1a411-472, or C1a441-522, were probed for Kv2.1.

T1 sequence (Q16623 whole entry): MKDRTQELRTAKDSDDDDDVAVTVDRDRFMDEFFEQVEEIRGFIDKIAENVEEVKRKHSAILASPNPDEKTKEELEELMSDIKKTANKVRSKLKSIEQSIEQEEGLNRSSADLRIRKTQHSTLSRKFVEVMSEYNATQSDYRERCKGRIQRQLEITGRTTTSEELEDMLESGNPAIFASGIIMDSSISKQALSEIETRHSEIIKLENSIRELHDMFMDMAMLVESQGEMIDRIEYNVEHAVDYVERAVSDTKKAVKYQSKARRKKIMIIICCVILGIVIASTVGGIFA
T2 sequence (Q16623 whole entry): as above

| Molecule | syntaxin binding inferred from the overlapping peptide array [1] | effect on Kv2.1/syntaxin binding (co-immunoprecipitation) [2] | syntaxin binding to spotted peptide (fluorescence intensity) [1] | further results |
| --- | --- | --- | --- | --- |
| HLSPNKWKW (listed as Rattus norvegicus) | represents the syntaxin-binding domain |  |  |  |
| C1a441-472: overlapping middle segment of C1a, residues 441-472 of rat Kv2.1 (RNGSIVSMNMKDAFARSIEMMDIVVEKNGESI; UniProt P15387 441-472, looked up, fragment) |  | had no effect on syntaxin's ability to bind to Kv2.1 |  | mean±SEM ratio of Kv2.1 to syntaxin immunoblots ([2]; CHO cells, n=3, baseline=0.24±0.08): 0.25±0.1 |
| peptide #22: 15-mer, residues 472-486 of SEQ ID NO: 3 (DKVQDNHLSPNKWKW; listed as Rattus norvegicus) |  |  | initial peptide showing substantial binding |  |
| DIVVEEKNGE (DIVVEKNGE; listed as Rattus norvegicus) [reference compound] | non-syntaxin-binding |  |  |  |
| peptide #28: 15-mer, residues 478-492 of SEQ ID NO: 3 (HLSPNKWKWTKRALS; listed as Rattus norvegicus) |  |  | final peptide showing substantial binding |  |
| B1 |  | did not |  |  |
